The source of these data is patent US20220249814A1, “METHODS AND DEVICES FOR TREATING A DISEASE WITH BIOTHERAPEUTICS” (PROGENITY, INC., priority 2018, published 2022).

Marks after values point to notes of the source that are not given here.

The nature of data set [1]: Example 3 blood insulin pharmacokinetics after SC or intra-jejunal jet delivery. The format is in vivo, Yorkshire female swine. Here is the method: A total of 18 Yorkshire female swine in good health and weighing 60-70 kg each were included in this study. Swine were divided into two groups with 9 animals per group. […] A sham surgical laparotomy was performed. […] The jet delivery device was configured with the single nozzle in an axial orientation.
Swine were divided into two groups with 9 animals per group. […] In all 18 animals, a laparotomy procedure was performed to expose the abdominal cavity. Animals remained under anesthesia during the entire procedure for the PK/PD study.
For the laparotomy in group 02, a small segment of the jejunal mucosa and serosa was exposed by midline laparotomy and the jet delivery device was inserted through antimesenteric incision.
(§1) Blood samples were kept on wet ice until centrifugation and separation of plasma. […] Glucose was monitored every five (5) minutes during the study by portable glucose analyzer (StatStrip (SS) hospital glucose monitoring system (Nova Biomedical, Waltham, Mass.)). At each time point, approximate 0.1 mL of blood was drawn and immediately placed on a glucose monitoring test strip, and the whole blood glucose concentration was measured by the SS in triplicate.
The animals were anesthetized for the entire ECP.

The nature of data set [2]: Example 3 euglycemic clamp pharmacodynamics (blood glucose, dextrose infusion rate). The format is in vivo, Yorkshire female swine. As for the experimental part:
as §1
A euglycemic clamp procedure (ECP) was employed to compare pharmacokinetics and pharmacodynamics of regular human Insulin (NOVOLIN® R) delivered subcutaneously (SC) in the neck versus intra-jejunally (IJ) by the jet delivery device in the small intestine. ECP was used to quantify the amount of glucose required to maintain normoglycemia after exogenous bolus of insulin. […] The animals were anesthetized for the entire ECP.

The nature of data set [3]: Example 6 dulaglutide plasma pharmacokinetics, ID via 2-nozzle device vs IV vs SC. The format is in vivo, female Yorkshire pigs (Sus scrofa domesticus). An excerpt:
The study design is shown below in Table 35.
Blood samples were kept on wet ice until centrifugation. […] All samples were maintained chilled throughout processing.

For data set [4] the following is noted: baseline dose, Admin. SC (Table 17); cited from earlier work.
Where [5] appears, read: IJ administration by jet delivery device (~40 U), Average of animals.
Setting [6] is: IJ administration by jet delivery device (~40 U), animal 18P17.
Where [7] appears, read: IJ administration by jet delivery device (~40 U), animal 18P22.
[8] abbreviates: IJ administration by jet delivery device (~40 U), animal 18P23.
Where [9] appears, read: IJ administration by jet delivery device (~40 U), animal 18P25.
The mark [10] stands for this setting: IJ administration by jet delivery device (~40 U), animal 18P28.
The mark [11] stands for this setting: IJ administration by jet delivery device (~40 U), animal 18P33.
[12] abbreviates: IJ administration by jet delivery device (~40 U), animal 18P36.
Where [13] appears, read: SC administration, animal 18P15.
Where [14] appears, read: SC administration, animal 18P16.
Where [15] appears, read: SC administration, animal 18P19.
[16] abbreviates: SC administration, animal 18P20.
[17] abbreviates: SC administration, animal 18P34.
[18] abbreviates: SC administration, animal 18P35.
[19] abbreviates: ID via ingestible device, 320 psig.

Take “Novolin® R: regular human insulin (NOVOLIN® R)”: the “AUC of blood insulin, SC vs IJ group” value in data set [1] (AUC0-420 min) is “higher than that of the IJ administration group”. Also, the Cmax blood insulin stood at 77.40 uIU/mL in data set [1] (setting [5]); 96.77 uIU/mL in data set [1] (IJ administration by jet delivery device (~40 U), animal 18P14); 5.03 uIU/mL in data set [1] (setting [6]); 7.96 uIU/mL in data set [1] (setting [7]); 48.77 uIU/mL in data set [1] (setting [8]); 40.93 uIU/mL in data set [1] (setting [9]). For the same molecule, the Cmax blood insulin came to 85.38 uIU/mL in data set [1] (setting [10]); 207.96 uIU/mL in data set [1] (setting [11]); 126.39 uIU/mL in data set [1] (setting [12]); 451.00 uIU/mL in data set [1] (setting [13]); 60.74 uIU/mL in data set [1] (setting [14]); 354.00 uIU/mL in data set [1] (setting [15]). For the same molecule, the Cmax blood insulin in data set [1] (setting [16]) turned out to be 356.60 uIU/mL; in data set [1] (SC administration, animal 18P21), 65.71 uIU/mL; in data set [1] (setting [17]), 59.18 uIU/mL; in data set [1] (setting [18]) it was 73.34 uIU/mL. For the same molecule, the Tmax blood insulin in data set [1] (setting [5]) is 55.63 min; in data set [1] (setting [6]) it was 50 min; in data set [1] (setting [7]) it was 90 min; in data set [1] (setting [8]), 40 min; in data set [1] (setting [9]), 20 min; in data set [1] (setting [10]), 40 min. Also, the Tmax blood insulin is 40 min in data set [1] (setting [11]); 90 min in data set [1] (setting [12]); 50 min in data set [1] (setting [13]); 180 min in data set [1] (setting [14]); 105 min in data set [1] (setting [15]); 30 min in data set [1] (setting [16]). In addition, the results for the Tmax blood insulin in data set [1] (setting [17]) and in data set [1] (setting [18]) were 120 min and 50 min, respectively. Moreover, the “maximum plasma concentration Cmax, SC vs IJ group” value in data set [1] (in vivo, sc) was “higher than that of the IJ administration group”. Besides, the “mean dextrose infusion rate, IJ vs SC group” value in data set [2] (first 70 minutes after administration) was “higher in the IJ administration group”; in data set [2] (from 75 minutes to 420 minutes post-administration) it was “higher in the SC administration group”.

The term Tmax denotes the time at which the peak concentration occurs. Turning to dulaglutide, in data set [3] (ID via 2-nozzle device 320 psig, 1.2 mg, swine plasma), the time of peak concentration (Tmax) was found to be 480 min. Also, the “(AUC)T0-T240 h ± SEM” value in data set [3] (ID via 2-nozzle device 320 psig, 1.2 mg, one animal below detection limit excluded (N=4)) is 4355.86 ± 1094.57 ^a ng · hr/mL; in data set [3] (IV, 1.2 mg), 16429.33 ± 600.93 ng·h/mL; in data set [3] (SC, 1.2 mg), 8869 ± 887.33 ng·h/mL. Also, the “bioavailability relative to IV administration [(AUC)ID/IV*100%]” value in data set [3] (setting [19]) was “about 33%”. The “bioavailability relative to SC administration [(AUC)ID/SC*100%]” value in data set [3] (setting [19]) was “about 61%”. Besides, in data set [3] (ID via ingestible device, 320 psig, 1.2 mg, prior to exclusion of animal no. 8487, ±SEM), the “AUCID (ng·hr/mL±SEM)” value was found to be 3890.00 ± 94.73 ng·h/mL. In data set [3] (one animal in Group 1 (no. 8487; ID)), the “plasma level of dulaglutide” value was “below the limit of detection of the ELISA assay”.

For glucagon, in data set [4], the Bioavail. is listed as 100.0%.

On to somatropin, for which, in data set [4], the Bioavail. is recorded as 80.5%.

B1: concizumab (antibody, chains of the INN, looked up, V domains shown)
VH: EVQLVESGGGLVKPGGSLRLSCAASGFTFSNYAMSWVRQTPEKRLEWVATISRSGSYSYFPDSVQGRFTISRDNAKNSLYLQMNSLRAEDTAVYYCARLGGYDEGDAMDSWGQGTTVTVSS
VL: DIVMTQTPLSLSVTPGQPASISCKSSQSLLESDGKTYLNWYLQKPGQSPQLLIYLVSILDSGVPDRFSGSGSGTDFTLKISRVEAEDVGVYYCLQATHFPQTFGGGTKVEIK
Turning to B1, the Bioavail. in data set [4] is on record as 93.0%.
